In patent US20190101529, “TAU PROTEIN-BINDING DNA APTAMERS WITH CAPTURE/DETECTION AND THERAPEUTIC UTILITIES IN TAUOPATHY-RELATED NEURODEGENERATIVE DISORDERS” (UNIVERSITY OF FLORIDA RESEARCH FOUNDATION, INC., published 2019) one finds binding result and Kd data, which are given here for 15 molecules.

One data set addresses T1, beta casein (UniProt P02666 P02666:16-224).
T1 sequence: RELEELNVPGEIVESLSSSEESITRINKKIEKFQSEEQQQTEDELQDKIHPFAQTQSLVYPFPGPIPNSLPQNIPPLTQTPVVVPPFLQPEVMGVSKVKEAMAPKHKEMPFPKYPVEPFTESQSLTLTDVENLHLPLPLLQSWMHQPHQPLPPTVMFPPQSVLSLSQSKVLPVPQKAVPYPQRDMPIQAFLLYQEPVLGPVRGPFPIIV
In words: EMSA; 200 nM aptamer, 0.05 mg/mL protein, 4 C. The settings on record: label: 5'-FAM (flow). Background: A gel shift assay detects complexes by their altered migration in electrophoresis.

For a further data set, the target named is BSA (UniProt P02769 P02769:25-607). In words: EMSA; 200 nM aptamer, 0.05 mg/mL protein, 4 C. The settings on record: label: 5'-FAM (flow).
Sequence of BSA (P02769 25-607, one chain of several): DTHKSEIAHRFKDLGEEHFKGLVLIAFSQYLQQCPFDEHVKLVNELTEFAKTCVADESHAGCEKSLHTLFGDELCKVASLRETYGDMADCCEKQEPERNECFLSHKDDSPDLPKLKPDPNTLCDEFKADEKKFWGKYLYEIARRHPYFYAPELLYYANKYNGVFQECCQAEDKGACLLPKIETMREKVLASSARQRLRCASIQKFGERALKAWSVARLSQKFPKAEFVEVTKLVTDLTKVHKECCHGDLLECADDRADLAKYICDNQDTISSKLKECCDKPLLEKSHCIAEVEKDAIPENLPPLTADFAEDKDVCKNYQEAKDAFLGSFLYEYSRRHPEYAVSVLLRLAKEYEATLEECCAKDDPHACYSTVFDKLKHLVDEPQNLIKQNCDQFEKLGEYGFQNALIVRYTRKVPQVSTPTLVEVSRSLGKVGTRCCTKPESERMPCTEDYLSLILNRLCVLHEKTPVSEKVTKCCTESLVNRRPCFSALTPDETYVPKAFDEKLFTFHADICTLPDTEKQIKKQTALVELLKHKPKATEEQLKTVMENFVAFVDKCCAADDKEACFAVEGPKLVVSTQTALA
In another data set the target is T2, alpha casein (UniProt P02662 P02662:16-214).
T2 sequence: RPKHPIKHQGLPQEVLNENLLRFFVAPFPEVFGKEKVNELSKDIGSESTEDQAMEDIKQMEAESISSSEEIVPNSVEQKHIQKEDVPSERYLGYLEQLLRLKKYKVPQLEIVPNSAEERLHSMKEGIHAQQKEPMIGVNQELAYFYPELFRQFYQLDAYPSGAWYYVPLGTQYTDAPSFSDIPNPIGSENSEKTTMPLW
In words: EMSA; 200 nM aptamer, 0.05 mg/mL protein, 4 C. The settings on record: label: 5'-FAM (flow).

A further data set deals with UCH-L1 (UniProt P09936 P09936:1-223). The experiment in a line: EMSA; 200 nM aptamer, 0.05 mg/mL protein, 4 C. The settings on record: label: 5'-FAM (flow).
Sequence of UCH-L1 (P09936 whole entry, one chain of several): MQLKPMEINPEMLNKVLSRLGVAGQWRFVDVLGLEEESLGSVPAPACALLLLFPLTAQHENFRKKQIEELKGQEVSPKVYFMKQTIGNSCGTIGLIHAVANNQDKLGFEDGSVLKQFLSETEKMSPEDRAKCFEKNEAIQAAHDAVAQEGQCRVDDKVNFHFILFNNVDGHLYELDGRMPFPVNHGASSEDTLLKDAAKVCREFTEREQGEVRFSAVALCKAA
For data set [1], the target named is Tau441 (microtubule-associated protein tau, 2N4R) (UniProt P10636-8 P10636-8:1-441). The experiment in a line: BLI; PBS + 5 mM Mg2+, 30 C. The settings on record: tags: His-tag (SignalChem) for BLI, rPeptide Tau441 for aggregation assay. The protocol:
(§1) The binding affinities and binding kinetics of the selected aptamers were determined on an Octet RED384 instrument (Pall Fortebio). All measurements were performed on 384-well plates that were agitated at 1000 rpm at 30° C. The his-tag peptides were immobilized at a concentration of 5 μg/mL on Ni-NTA sensors for 10 minutes, followed by rinsing the sensors in PBS for 10 min. Then the sensors were brought into fresh association buffer (PBS with 5 mM Mg2+) to establish a baseline for another 10 min. For kinetic analysis, the peptide-immobilized sensors were transferred to the wells containing aptamer dilutions (1 μM, 1.5 μM, 2 μM, 3 μM, 4 μM) for the association step (10 min), and then moved to the wells with fresh buffer for the dissociation step (10 min). A reference sensor was used without the treatment with aptamer solution but others steps remained the same. […] Association rate constants (kon), dissociation rate constants (koff), and equilibrium dissociation constants (Kd) for each aptamer binding to its target peptide were calculated using the FORTEBIO® data analysis software 10.0.
For orientation: BLI is a label-free optical method that tracks binding on a fibre tip over time.

In data set [2] the target is T3, Tau T231 peptide (UniProt P10636).
T3 chain: KVAVVRTPPKSPS
In words: flow; no significant background binding; PBS + 5 mM MgCl2, 4 C. The settings on record: protein: synthetic; tags: synthetic (GenScript), N-terminal acetyl, C-terminal Ahx-Ahx-His6; label: fluorophore. The procedure: (§2) For each sample, 20 μL of peptide-beads or bare beads (˜1.4×105 beads) was washed against 500 μL of PBS three times. After removing the supernatant, beads were suspended in 80 μL of buffer containing either DNA pool or aptamer candidate to be tested at 250 nM for 30 min, but the DNA concentration used was 100 nM instead of 250 nM when examining the saturation of fluorescent signal with the selection pools. Incubations were carried out at 4° C. unless stated otherwise. Afterwards, beads were washed against 500 μL of PBS with additional 5 mM Mg2+ twice and then were suspended in 80 μL of buffer for flow cytometric analysis.
The supernatant collected after the fourth negative incubation then was carried to the 8th round of positive incubation, in which the concentration of the peptide solutions used to modify Ni-NTA beads was doubled to 800 μg/mL. Moving forward, the following selection rounds were conducted with sandwiched negative incubations to eliminate the possibility of enriching any oligonucleotides recognizing the surface of the beads and with positive beads prepared with more concentrated peptide solutions (800 μg/mL) to raise the recovery rate of the desired candidates. The SELEX progress was then evaluated again with amplicons obtained in Round #10 and Round #11. […] Four oligonucleotides were used as reference sequences.

In data set [3] the target is T3, Tau T231 peptide. In words: BLI; PBS + 5 mM Mg2+, 30 C. The settings on record: protein: synthetic; tags: synthetic peptide (GenScript), N-terminal acetyl, C-terminal (Ahx)2-His6. The protocol: as §1
The next data set addresses T4, Tau T231P phosphopeptide (UniProt P10636).
T4 chain: KVAVVR[pT]PPKSPS
The experiment in a line: flow; binding lost completely; 4 C. The settings on record: protein: synthetic. The protocol: as §2, with “BD ACCURI™ C6 flow cytometry (BD Immunocytometry Systems) was used to monitor the enrichment of aptamer candidates during the selection process and to evaluate the binding specificity of the selected aptamer candidates. For” for “For”

Data set [4] addresses T3, Tau T231 peptide. The experiment in a line: flow; binding lost completely; 4 C. The settings on record: protein: synthetic; tags: synthetic peptide (GenScript), N-terminal acetyl, C-terminal (Ahx)2-His6. The procedure: as §2, with “BD ACCURI™ C6 flow cytometry (BD Immunocytometry Systems) was used to monitor the enrichment of aptamer candidates during the selection process and to evaluate the binding specificity of the selected aptamer candidates. For” for “For”

A further data set deals with T5, Tau S202 peptide.
T5 chain: GYSSPGSPGTPGSR
In words: flow; binding lost completely; 4 C. The settings on record: protein: synthetic; tags: synthetic peptide (GenScript), N-terminal acetyl, C-terminal (Ahx)2-His6. The procedure:
as §2, with “BD ACCURI™ C6 flow cytometry (BD Immunocytometry Systems) was used to monitor the enrichment of aptamer candidates during the selection process and to evaluate the binding specificity of the selected aptamer candidates. For” for “For”

Data set [5] deals with T3, Tau T231 peptide. In words: flow; binding lost; 4 C. The settings on record: protein: synthetic; tags: synthetic peptide (GenScript), N-terminal acetyl, C-terminal (Ahx)2-His6. The protocol:
as §2, with “BD ACCURI™ C6 flow cytometry (BD Immunocytometry Systems) was used to monitor the enrichment of aptamer candidates during the selection process and to evaluate the binding specificity of the selected aptamer candidates. For” for “For”

Where no end group is shown, it is not given here. [ ]: non-standard residue; d: D form. pT = C[C@@H](OP(=O)(O)O)[C@H](N)C(=O)O

Sequence of Tau441 (microtubule-associated protein tau, 2N4R) (P10636 other isoform, or with tags, fused parts or gaps): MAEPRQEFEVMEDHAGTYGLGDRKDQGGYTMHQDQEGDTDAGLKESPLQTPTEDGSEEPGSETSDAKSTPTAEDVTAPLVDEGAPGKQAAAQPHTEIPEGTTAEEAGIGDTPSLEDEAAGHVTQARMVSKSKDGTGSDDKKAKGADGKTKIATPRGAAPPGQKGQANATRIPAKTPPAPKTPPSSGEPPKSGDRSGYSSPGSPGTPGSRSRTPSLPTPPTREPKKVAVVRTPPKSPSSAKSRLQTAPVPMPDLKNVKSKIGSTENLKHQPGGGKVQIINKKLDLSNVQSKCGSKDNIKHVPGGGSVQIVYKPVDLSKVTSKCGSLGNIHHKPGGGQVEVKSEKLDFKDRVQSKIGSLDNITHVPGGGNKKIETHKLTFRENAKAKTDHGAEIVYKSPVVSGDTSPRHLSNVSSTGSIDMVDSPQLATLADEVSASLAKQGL

B1: IT3 (ssDNA)
DNA: CAGCACCGTCAACTGAATGGGGAGAGTGGTGGGGCGGGGGCCGGATCCGTGATGCGATGGAGATGT
In the case of B1, the binding result in the data set with beta casein, with BSA, with alpha casein and with UCH-L1 was “no binding” in each case. Moreover, in [1] (label: 5'-FAM (flow)), the Kd – broadly, the equilibrium constant for the complex coming apart – is 17 nM.
GCGGAGCGTGGCAGG (ssDNA) [Ref1]: in the data set with Tau T231 peptide [2], the binding result is on record as “no binding”.
On the same count and under the same terms, as for AACGAGAAGCGCGATCACAT (ssDNA) [Ref2], the entry is “no binding”.

B2: IT2 (ssDNA)
DNA: CAGCACCGTCAACTGAATAAGGACTGCTTAGGATTGCGATGATTCAGGGTGATGCGATGGAGATGT
With B2, the Kd in data set [1] (label: 5'-FAM (flow)) is 5.5 nM.
As for CTTCTGCCCGCCTCCTTCC (ssDNA) [Ref3], the binding result with Tau T231 peptide [2] is given as “no binding”.
In the case of CTGAATAAGGACTGCTTAGGATTGCGATGATTCAG (ssDNA) [IT2a], the Kd in data set [1] (hairpin) stood at 19.5 nM.
For GCTTGGTCCTCCCGGGGTTCTGGAAAAGC (ssDNA) [IT1c], the Kd in the data set with Tau T231 peptide [3] came to 46 nM; in data set [1] it was 13 nM.

B3: IT4 (ssDNA)
DNA: CAGCACCGTCAACTGAATGGGTTGGCCGGGCAGCGGGGGGTAGGCTTGGTGATGCGATGGAGATGT
Regarding B3, the binding result with beta casein, with BSA, with alpha casein and in the data set with UCH-L1 was “no binding” throughout. Besides, the Kd in [1] (label: 5'-FAM (flow)) was 68 nM.
Take AAGGACTGCTTAGGATTGC (ssDNA) [IT2b]: the binding result with Tau T231P phosphopeptide, with Tau T231 peptide [4] and with Tau S202 peptide was “no binding” in each case.
With TTGGTCCTCCCGGGGTTCTGGAAAA (ssDNA) [IT1d], the binding result in the data set with Tau T231 peptide [5] was “no binding”.
Regarding CACCGTCAACTGAATGTTGTCGTCAGAGGTTATAACCTGAACTCGGTG (ssDNA) [IT6a], in [1], the Kd is 28.2 nM.

B4: IT6 (ssDNA)
DNA: CAGCACCGTCAACTGAATGTTGTCGTCAGAGGTTATAACCTGAACTCGGTGATGCGATGGAGATGT
For B4, the Kd in data set [1] (label: 5'-FAM (flow), branched hairpin (predicted)) was 26.8 nM.

B5: IT1 (ssDNA)
DNA: CAGCACCGTCAACTGAATTGCTTGGTCCTCCCGGGGTTCTGGAAAAGCGTGATGCGATGGAGATGT
For the molecule B5, in [1] (label: 5'-FAM (flow)), the Kd was found to be 9 nM.

B6: IT5 (ssDNA)
DNA: CAGCACCGTCAACTGAATGGCGGGGGGTCAGGTCGGGGTAAGGTGAGCGTGATGCGATGGAGATGT
In the case of B6, the binding result with beta casein, with BSA, in the data set with alpha casein and with UCH-L1 was “no binding” throughout. In data set [1] (label: 5'-FAM (flow)), the dissociation constant Kd came out at 7.6 nM.

B7: IT9 (ssDNA)
DNA: CAGCACCGTCAACTGAATTGCGGGGGGTCAGGTCGGGGTAAGGTGAGCGTGATGCGATGGAGATGT
In the case of B7, the binding result in the data set with beta casein, with BSA, with alpha casein and with UCH-L1 was “no binding” each time. The Kd in [1] (label: 5'-FAM (flow)) is 22.8 nM.
